# Data published in patent publication US20080254026A1.
# Columns and labels:
# Assay in all cases: cell-based or functional assay
# [1] = biological target: human CD40 on normal human B cells (PBMC or purified B cells) (human) (UniProt P25942)
# [2] = biological target: human CD40 antigen on the surface of B cells in human PBMC (human) (UniProt P25942)
# [3] = biological target: human CD40 antigen expressed on the surface of cells (human) (UniProt P25942)
# [4] = biological target: human CD40 on the surface of B cells within PBMC from normal human subjects (human) (UniProt P25942)
# CD20 (human) = CD20 (human) (UniProt P11836)
# [5] = biological target: human CD20 on the surface of lymphoma cell lines (Ramos or Daudi) (human) (UniProt P11836)
# Sequence of human CD20 on the surface of lymphoma cell lines (Ramos or Daudi) (human) (P11836 whole entry): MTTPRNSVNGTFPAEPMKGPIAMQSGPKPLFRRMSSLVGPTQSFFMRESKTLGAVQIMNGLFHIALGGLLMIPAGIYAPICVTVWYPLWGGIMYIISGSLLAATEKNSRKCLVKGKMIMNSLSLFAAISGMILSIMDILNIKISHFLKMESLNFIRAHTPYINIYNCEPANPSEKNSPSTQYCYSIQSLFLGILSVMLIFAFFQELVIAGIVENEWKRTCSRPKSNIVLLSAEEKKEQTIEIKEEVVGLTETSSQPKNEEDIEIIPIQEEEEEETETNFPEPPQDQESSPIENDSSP
# Sequence of human CD40 on the surface of B cells within PBMC from normal human subjects (human) (P25942 20-277): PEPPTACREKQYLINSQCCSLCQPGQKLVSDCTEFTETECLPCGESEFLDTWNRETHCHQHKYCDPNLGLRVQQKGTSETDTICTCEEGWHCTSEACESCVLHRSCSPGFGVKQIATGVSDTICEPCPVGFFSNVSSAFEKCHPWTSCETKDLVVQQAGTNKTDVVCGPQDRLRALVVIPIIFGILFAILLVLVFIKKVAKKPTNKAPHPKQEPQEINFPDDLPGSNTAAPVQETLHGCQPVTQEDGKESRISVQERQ
# Sequence of human CD40 antigen on the surface of B cells in human PBMC (human) (P25942 20-277): as above
# Sequence of human CD40 on normal human B cells (PBMC or purified B cells) (human) (P25942 20-277): as above
# Sequence of CD40 ligand on formaldehyde-fixed CHO transfectant cells (P29965 whole entry): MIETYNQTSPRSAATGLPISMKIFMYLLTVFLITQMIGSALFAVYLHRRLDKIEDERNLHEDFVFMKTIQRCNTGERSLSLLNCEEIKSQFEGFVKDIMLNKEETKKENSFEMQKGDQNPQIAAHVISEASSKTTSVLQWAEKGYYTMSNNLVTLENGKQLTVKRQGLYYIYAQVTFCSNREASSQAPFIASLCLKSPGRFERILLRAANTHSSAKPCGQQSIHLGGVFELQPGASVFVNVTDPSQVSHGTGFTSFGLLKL
# Sequence of CD40 ligand expressed on formaldehyde-fixed CHO cells (P29965 whole entry): as above
# Sequence of CD20 (human) (P11836 whole entry): as the sequence (P11836 whole entry) above
# Sequence of human CD40 antigen expressed on the surface of cells (human) (P25942 20-277): as the sequence (P25942 20-277) above
substance,measurement,setting,value
CD40 ligand on formaldehyde-fixed CHO transfectant cells (from UniProt P29965 1-261),"Average Stimulation Index (SI), B cells + CHO-CD40L",[1],145
same,S. index (1) = CPM (B cells + CHO-CD40L)/CPM (B cells alone); B cell-004 Donor 1,[1],7.49
same,S. index (1) = CPM (B cells + CHO-CD40L)/CPM (B cells alone); B cell-004 Donor 2,[1],336
same,S. index (1) = CPM (B cells + CHO-CD40L)/CPM (B cells alone); B cell-005 Donor 3,[1],92
CD40 ligand expressed on formaldehyde-fixed CHO cells (from UniProt P29965 1-261),"Average SI of PBMC; PBMC + CHO-CD40L, index (1)",[2],5.09
same,"PBMC proliferation (3H-thymidine), CPM of PBMC + CHO-CD40L; PBMC-010",[2],5280 CPM
same,"PBMC proliferation (3H-thymidine), CPM of PBMC + CHO-CD40L; PBMC-011 Donor#1",[2],8250 CPM
same,"PBMC proliferation (3H-thymidine), CPM of PBMC + CHO-CD40L; PBMC-011 Donor#2",[2],11600 CPM
same,"PBMC proliferation (3H-thymidine), CPM of PBMC + CHO-CD40L; PBMC-011 Donor#3",[2],7960 CPM
same,"PBMC proliferation (3H-thymidine), CPM of PBMC + CHO-CD40L; PBMC-011 Donor#4",[2],14300 CPM
same,"PBMC proliferation (3H-thymidine), CPM of PBMC + CHO-CD40L; PBMC-014",[2],8790 CPM
same,"PBMC proliferation (3H-thymidine), CPM of PBMC + CHO-CD40L; PBMC-015 Donor#1",[2],12900 CPM
same,"PBMC proliferation (3H-thymidine), CPM of PBMC + CHO-CD40L; PBMC-015 Donor#2",[2],19100 CPM
same,"PBMC proliferation (3H-thymidine), CPM of PBMC + CHO-CD40L; PBMC-015 Donor#3",[2],19800 CPM
same,"PBMC proliferation (3H-thymidine), CPM of PBMC + CHO-CD40L; PBMC-016",[2],15800 CPM
same,index (1) = (PBMC + CHO-CD40L)/PBMC; PBMC-010,[2],3.73
same,index (1) = (PBMC + CHO-CD40L)/PBMC; PBMC-011 Donor#1,[2],3.86
same,index (1) = (PBMC + CHO-CD40L)/PBMC; PBMC-011 Donor#2,[2],4.87
same,index (1) = (PBMC + CHO-CD40L)/PBMC; PBMC-011 Donor#3,[2],2.46
same,index (1) = (PBMC + CHO-CD40L)/PBMC; PBMC-011 Donor#4,[2],3.41
same,index (1) = (PBMC + CHO-CD40L)/PBMC; PBMC-014,[2],3.74
same,index (1) = (PBMC + CHO-CD40L)/PBMC; PBMC-015 Donor#1,[2],3.94
same,index (1) = (PBMC + CHO-CD40L)/PBMC; PBMC-015 Donor#2,[2],3.14
same,index (1) = (PBMC + CHO-CD40L)/PBMC; PBMC-015 Donor#3,[2],8
same,index (1) = (PBMC + CHO-CD40L)/PBMC; PBMC-016,[2],13.8
same,"average stimulation index (SI), proliferation of total PBMC",[3],7.41
same,"Average SI of PBMC; PBMC + CHO-CD40L, index (1)",[4],11.9
same,"Average Stimulation index; PBMC + CHO-CD40L, S. index (1)",[4],22
same,"PBMC + CHO-CD40L, CPM; Immoblize-004",[4],11700 CPM
same,"PBMC + CHO-CD40L, CPM; PBMC-012",[4],6810 CPM
same,"PBMC + CHO-CD40L, CPM; PBMC-025 Donor#1",[4],42300 CPM
same,"PBMC + CHO-CD40L, CPM; PBMC-025 Donor#2",[4],15000 CPM
same,"PBMC + CHO-CD40L, CPM; PBMC-026 Donor#1",[4],18300 CPM
same,"PBMC + CHO-CD40L, CPM; PBMC-026 Donor#2",[4],18100 CPM
same,"PBMC + CHO-CD40L, CPM; PBMC-027 Donor#1",[4],13000 CPM
same,"PBMC + CHO-CD40L, CPM; PBMC-027 Donor#2",[4],11900 CPM
same,"PBMC + CHO-CD40L, CPM; PBMC-028 Donor#1",[4],22500 CPM
same,"PBMC + CHO-CD40L, CPM; PBMC-028 Donor#2",[4],54900 CPM
same,"PBMC + CHO-CD40L, CPM; PBMC-029 Donor#1",[4],10100 CPM
same,"PBMC + CHO-CD40L, CPM; PBMC-029 Donor#2",[4],23100 CPM
same,"PBMC + CHO-CD40L, CPM; PBMC-030 Donor#1",[4],57200 CPM
same,"PBMC + CHO-CD40L, CPM; PBMC-030 Donor#2",[4],53900 CPM
same,"PBMC + CHO-CD40L, CPM; PBMC-032 Donor#1",[4],15300 CPM
same,"PBMC + CHO-CD40L, S. index (1); Immoblize-004",[4],13.7
same,"PBMC + CHO-CD40L, S. index (1); PBMC-012",[4],30.3
same,"PBMC + CHO-CD40L, index (1); PBMC-025 Donor#1",[4],10.4
same,"PBMC + CHO-CD40L, index (1); PBMC-025 Donor#2",[4],6.63
same,"PBMC + CHO-CD40L, index (1); PBMC-026 Donor#1",[4],8.78
same,"PBMC + CHO-CD40L, index (1); PBMC-026 Donor#2",[4],26.7
same,"PBMC + CHO-CD40L, index (1); PBMC-027 Donor#1",[4],4.75
same,"PBMC + CHO-CD40L, index (1); PBMC-027 Donor#2",[4],8.89
same,"PBMC + CHO-CD40L, index (1); PBMC-028 Donor#1",[4],5.26
same,"PBMC + CHO-CD40L, index (1); PBMC-028 Donor#2",[4],25.6
same,"PBMC + CHO-CD40L, index (1); PBMC-029 Donor#1",[4],16.5
same,"PBMC + CHO-CD40L, index (1); PBMC-029 Donor#2",[4],2.99
same,"PBMC + CHO-CD40L, index (1); PBMC-030 Donor#1",[4],13.7
same,"PBMC + CHO-CD40L, index (1); PBMC-030 Donor#2",[4],16.2
same,"PBMC + CHO-CD40L, index (1); PBMC-032 Donor#1",[4],8.45
rituximab (Rituxan; IDEC-C2B8) (antibody),"% lysis (ADCC-012 Calcein AM, huNK E:T 10, 1 ug/ml)",CD20 (human),66%
same,"% lysis - % lysis IgG1 (ADCC-006 Alarmor Blue, huNK E:T 2, 0.01 ug/ml)",CD20 (human),33%
same,"% lysis - % lysis IgG1 (ADCC-013 51Cr, PBMC E:T 100, 0.001 ug/ml)",CD20 (human),0.35%
same,"% lysis (Ramos or Daudi; ADCC-012 Calcien AM, huNK E:T 10; 1 ug/ml)",[5],66%
same,"% lysis - % lysis IgG1 (Ramos or Daudi; ADCC-006 Alarmor Blue, huNK E:T 2; 0.01 ug/ml)",[5],33%
same,"% lysis - % lysis IgG1 (Ramos or Daudi; ADCC-013 51Cr, PBMC E:T 100; 0.001 ug/ml)",[5],0.35%
